Molecular target: receptors on glutaraldehyde-fixed HeLa cells
Test: competition ligand assay on fixed HeLa cells; 100 µg E. coli lysate (F11.2 cDNA); competitor: ^35 S-labeled trichomonad AP65; densitometry of fluorograms

recombinant AP65-1 adhesin expressed in E. coli from cDNA clone F11.2 (ligand)
percent decrease of parasite AP65 binding: 55%

Reference: patent US5922563
